Publication PMC7794784, “A Very Bright Far-Red Bioluminescence Emitting Combination Based on Engineered Railroad Worm Luciferase and 6′-Amino-Analogs for Bioimaging Purposes” (International Journal of Molecular Sciences, 2020)
Residue numbers refer to the chain shown, from its start. Numbers in names are those of the source.

B1: PxRE luciferase (P. hirtus red-emitting luciferase, RE WT) (Phrixothrix hirtus) (protein)
chain: MEEENIVNGDRPRDLVFPGTAGLQLYQSLYKYSYITDGIIDAHTNEVISYAQIFETSCRLAVSLEKYGLDHNNVVAICSENNIHFFGPLIAALYQGIPMATSNDMYTEREMIGHLNISKPCLMFCSKKSLPFILKVQKHLDFLKKVIVIDSMYDINGVECVFSFVSRYTDHAFDPVKFNPKEFDPLERTALIMTSSGTTGLPKGVVISHRSITIRFVHSSDPIYGTRIAPDTSILAIAPFHHAFGLFTALAYFPVGLKIVMVKKFEGEFFLKTIQNYKIASIVVPPPIMVYLAKSPLVDEYNLSSLTEIACGGSPLGRDIADKVAKRLKVHGILQGYGLTETCSALILSPNDRELKKGAIGTPMPYVQVKVIDINTGKALGPREKGEICFKSQMLMKGYHNNPQATRDALDKDGWLHTGDLGYYDEDRFIYVVDRLKELIKYKGYQVAPAELENLLLQHPNISDAGVIGIPDEFAGQLPSACVVLEPGKTMTEKEVQDYIAELVTTTKHLRGGVVFIDSIPKGPTGKLMRNELRAIFAREQAKSKL
B2: PxRE luciferase (P. hirtus red-emitting luciferase, RE WT) (Phrixothrix hirtus; R215K) (protein)
chain: B1 chain with R215K

Experiments:
[1] = substrate: Nc1ncnc2c1ncn2[C@@H]1O[C@H](COP(=O)(O)OP(=O)(O)OP(=O)(O)O)[C@@H](O)[C@H]1O; assay: purified protein; conditions: co-substrate D-luciferin, 4 mM MgSO4, 0.10 M Tris-HCl pH 8.0, 22 °C
[2] = substrate: O=C(O)[C@H]1CSC(c2nc3ccc(N4CCCC4)cc3s2)=N1; assay: bioluminescence peak intensity (I0), Lineweaver-Burk; assay type: biochemical, Phrixothrix hirtus; conditions: 2 mM ATP, 4 mM MgSO4, 0.10 M Tris-HCl pH 8.0, 22 °C, kcat in relative luminometer counts
From the text: (§1) bioluminescence peak intensity (I0), Lineweaver-Burk on PxRE luciferase (P. hirtus red-emitting luciferase, RE WT)

[3] = substrate: O=C(O)[C@H]1CSC(c2nc3ccc(O)cc3s2)=N1; assay: as above; assay type: biochemical, Phrixothrix hirtus; conditions: 2 mM ATP, 4 mM MgSO4, 0.10 M Tris-HCl pH 8.0, 22 °C, kcat in relative luminometer counts
From the text: as §1

Protein	Km [1]	Km [2]	Km [3]
B1	230 µM	0.5 µM	7 µM
B2	50 µM	1.0 µM	40 µM
